Test results as given in PMC5971202.
Like-named read-outs stand apart in the source and are kept apart here.

Legend:
Experiment in all cases: EMSA
rDDX1 (WT) [1] = molecular target: T1, rDDX1 (WT) (human, UniProt Q92499 1-728)
T1 sequence: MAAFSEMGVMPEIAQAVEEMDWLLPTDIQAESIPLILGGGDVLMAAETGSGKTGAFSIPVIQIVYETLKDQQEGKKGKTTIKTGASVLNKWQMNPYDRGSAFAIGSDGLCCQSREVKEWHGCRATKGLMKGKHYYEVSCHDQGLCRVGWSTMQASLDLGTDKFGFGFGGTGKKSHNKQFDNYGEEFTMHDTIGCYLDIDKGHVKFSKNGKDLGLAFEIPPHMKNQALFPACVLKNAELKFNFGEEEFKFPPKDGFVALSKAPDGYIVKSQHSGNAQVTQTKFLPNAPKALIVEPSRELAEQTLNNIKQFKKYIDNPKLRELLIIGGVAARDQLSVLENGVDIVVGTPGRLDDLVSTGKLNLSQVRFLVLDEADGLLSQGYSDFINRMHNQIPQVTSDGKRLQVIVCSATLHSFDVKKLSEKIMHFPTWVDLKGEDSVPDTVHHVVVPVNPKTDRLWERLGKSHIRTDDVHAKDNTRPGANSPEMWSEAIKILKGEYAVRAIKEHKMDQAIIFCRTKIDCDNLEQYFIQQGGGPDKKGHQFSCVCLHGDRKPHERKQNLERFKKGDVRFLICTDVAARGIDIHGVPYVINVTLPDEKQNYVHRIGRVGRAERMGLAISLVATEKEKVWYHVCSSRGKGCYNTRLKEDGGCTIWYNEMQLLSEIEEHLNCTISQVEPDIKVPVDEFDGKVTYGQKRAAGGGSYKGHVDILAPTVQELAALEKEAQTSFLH

rDDX1-K52A [2] = molecular target: T2, rDDX1-K52A (human, UniProt Q92499 1-728, K52A)
T2 sequence: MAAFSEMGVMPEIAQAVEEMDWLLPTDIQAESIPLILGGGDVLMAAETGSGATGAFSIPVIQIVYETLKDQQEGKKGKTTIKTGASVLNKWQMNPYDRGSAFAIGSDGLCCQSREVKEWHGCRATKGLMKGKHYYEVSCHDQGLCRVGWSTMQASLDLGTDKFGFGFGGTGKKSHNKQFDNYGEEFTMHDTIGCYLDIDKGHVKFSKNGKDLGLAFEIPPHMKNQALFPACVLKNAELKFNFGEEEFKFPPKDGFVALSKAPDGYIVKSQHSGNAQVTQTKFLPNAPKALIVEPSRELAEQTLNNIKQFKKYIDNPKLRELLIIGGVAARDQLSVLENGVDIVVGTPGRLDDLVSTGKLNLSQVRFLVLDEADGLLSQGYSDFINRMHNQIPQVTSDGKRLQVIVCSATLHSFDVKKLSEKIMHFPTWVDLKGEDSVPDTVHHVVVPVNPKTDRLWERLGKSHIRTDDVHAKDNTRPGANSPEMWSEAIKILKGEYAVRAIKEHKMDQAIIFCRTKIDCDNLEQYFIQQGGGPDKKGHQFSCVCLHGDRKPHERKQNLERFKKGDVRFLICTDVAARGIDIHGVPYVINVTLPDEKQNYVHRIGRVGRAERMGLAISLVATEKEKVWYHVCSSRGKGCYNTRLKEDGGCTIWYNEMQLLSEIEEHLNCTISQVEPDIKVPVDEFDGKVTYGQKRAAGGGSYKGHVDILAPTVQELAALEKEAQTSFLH

rDDX1 (WT) [3] = molecular target: T1, rDDX1 (WT); remark: listed apart in the source
rDDX1-K52A [4] = molecular target: T2, rDDX1-K52A; remark: listed apart in the source

Row | Binder | binding result (rDDX1 (WT) [1]) | binding result (rDDX1-K52A [2]) | binding result (rDDX1 (WT) [3]) | binding result (rDDX1-K52A [4])
1 | ATCGGAATGTATGAGAATAGAAGAGATAATGAATAATAGAA (ssDNA) [Single-stranded DNA] | no binding | no binding |  | 
2 | GAGCUGGGGUGAGCUGGGGUGAGCUGGGGUGAGCUGGGGU (structured_RNA) [Sμ4G RNA 32P] |  |  | binds | binds
3 | GAGCUGCGCUGAGCUGCGCUGAGCUGCGCUGAGCUGCGCU (ssRNA) [Sμ4Gmut RNA 32P] |  |  | no binding | 
